Test results reported in paper PMC4075976 (Nature structural & molecular biology, 2008).
Where no end group is shown, it is not given here.

Experiments:
[1] = molecular target: full length 6xHis tagged p53 (human, UniProt P04637 1-393); assay: pull-down
[2] = molecular target: UBE2D2/UbcH5b (UniProt P62837 1-147); assay: NMR titration

Chain of full length 6xHis tagged p53 (P04637 whole entry): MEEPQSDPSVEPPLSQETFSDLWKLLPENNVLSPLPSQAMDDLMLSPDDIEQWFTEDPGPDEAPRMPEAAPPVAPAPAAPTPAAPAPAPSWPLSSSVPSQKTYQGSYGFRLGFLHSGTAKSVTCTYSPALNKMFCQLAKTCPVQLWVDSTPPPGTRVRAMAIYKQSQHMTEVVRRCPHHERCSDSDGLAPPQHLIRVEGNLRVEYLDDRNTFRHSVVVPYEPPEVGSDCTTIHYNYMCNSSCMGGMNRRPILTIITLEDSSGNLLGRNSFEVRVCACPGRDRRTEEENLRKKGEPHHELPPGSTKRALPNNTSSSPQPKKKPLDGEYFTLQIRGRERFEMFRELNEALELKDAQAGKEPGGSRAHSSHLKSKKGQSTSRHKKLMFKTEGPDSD

Row | Binder | binding result [1] | Kd [2] [µM]
1 | GST-Pirh2 NTD (domain or fragment, human, UniProt Q96PM5 1-137, looked up) MAATAREDGASGQERGQRGCEHYDRGCLLKAPCCDKLYTCRLCHDNNEDHQLDRFKVKEVQCINCEKIQHAQQTCEECSTLFGEYYCDICHLFDKDKKQYHCENCGICRIGPKEDFFHCLKCNLCLAMNLQGRHKCI | binds | –
2 | Pirh2 RING domain (GST removed) (domain or fragment, cysteine pairing not given here; also: 2 Zn ions bound) ENVSRQNCPICLEDIHTSRVVAHVLPCGHLLHRTCYEEMLKEGYRCPLCMHS | – | ~200
